Ends that are not written are not given here. bbDTPA = DTPA chelating ligand bonded through a carbon of its ethylene backbone
How the values were obtained:
[1] = target: T1, streptavidin (on magnetic beads) (UniProt P22629 37-163, limits assumed); experiment: capture on streptavidin magnetic beads, gadolinium ICP
T1 construct: also called streptavidin beads; streptavidin-coated beads
Experimental: The three EP1595/EP1272 formulations, one EP1596/EP1272 formulation, and an EP1272 formulation were assayed for affinity to streptavidin magnetic beads. Each sample was diluted so as to maintain a constant ratio of biotinylated peptide and streptavidin binding sites in the assay. Solutions without biotin were treated as though they contained 0.5% EP1595. After several rinses the magnetic beads were digested in acid. The extent of capture was quantified by gadolinium ICP.

[2] = target: the molecule itself; experiment: self-association, observation of solutions
Excerpt: First, solutions of EP 1272L (FW=2,243 Da) were concentrated and purified by centrifugation in a filter device with a nominal molecular weight limit of 300,000 Da. The formation of high molecular weight aggregates allowed EP1272L to be retained by the filter device. […] Third, SEC-LS column retention and light scattering measurements of EP1272L were consistent with a large species having a mass distribution of 4×10⁶ to 13×10⁶ Da, and a hydrodynamic radius in the range of 155 nm to 210 nm.

T1 sequence (P22629 37-163 limits assumed): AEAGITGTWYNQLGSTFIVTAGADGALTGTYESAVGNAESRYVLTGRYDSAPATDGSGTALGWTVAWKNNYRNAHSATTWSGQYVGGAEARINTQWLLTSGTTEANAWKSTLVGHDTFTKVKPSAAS

B1: EP1272L (peptide)
peptide: bbDTPA-GAEAEAKAKAEAEAKAK
modifications: also: bbDTPA complexed to Gd(III)
notes: also called EP1272L aggregates alone; EP1272 formulation
- binding result [1]: binds
- binding result [2]: binds
